Data as given in patent US20240218079A1, “PLASMA KALLIKREIN ANTIBODIES AND USES THEREOF” (Astria Therapeutics, Inc., priority 2021, published 2024).

Assays:
[1] = target: Hepsin; assay: cell-based or functional assay
[2] = target: Thrombin a; assay: cell-based or functional assay

Chain of DX-2930 (antibody) (VH): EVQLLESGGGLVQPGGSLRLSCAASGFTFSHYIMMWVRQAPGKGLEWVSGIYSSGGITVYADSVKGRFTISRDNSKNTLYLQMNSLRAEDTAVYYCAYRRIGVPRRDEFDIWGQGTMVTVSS
Chain of DX-2930 (antibody) (VL): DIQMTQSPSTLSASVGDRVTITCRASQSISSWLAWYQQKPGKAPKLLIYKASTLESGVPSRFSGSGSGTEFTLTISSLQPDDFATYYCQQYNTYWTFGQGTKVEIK

DX-2930 (antibody)
> 1000 nM: IC50, protease inhibition assay, fluorescent peptide substrate, Duplicate 1 [1] | IC50, protease inhibition assay, fluorescent peptide substrate, Duplicate 2 [1] | IC50, protease inhibition assay, fluorescent peptide substrate, Duplicate 1 [2] | IC50, protease inhibition assay, fluorescent peptide substrate, Duplicate 2 [2]
